From patent US20140120082A1

Key:
8.3 TcR = test: tetramer staining of 8.3 TcR-transgenic NOD CD8+ T cells, flow cytometry
human NKG2D (human) [1] = target: human NKG2D (human) (UniProt P26718); test: cell-based or functional assay
human NKG2D (human) [2] = target: human NKG2D (human) (UniProt P26718); test: flow cytometry on NKL cells stained on ice with biotinylated mAb, APC-streptavidin before culture (0 h)
human NKG2D (human) [3] = target: human NKG2D (human) (UniProt P26718); test: flow cytometry on NKL cells stained on ice with biotinylated mAb, APC-streptavidin after 16 h of culture at 37° C

Chain of UniProt P26718 (P26718 whole entry T72A): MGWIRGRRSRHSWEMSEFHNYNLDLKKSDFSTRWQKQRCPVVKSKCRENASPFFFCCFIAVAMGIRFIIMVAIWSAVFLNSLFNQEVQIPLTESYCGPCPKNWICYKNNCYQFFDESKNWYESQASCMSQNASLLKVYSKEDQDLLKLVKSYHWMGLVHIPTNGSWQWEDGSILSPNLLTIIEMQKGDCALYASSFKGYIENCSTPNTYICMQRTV

| Substance | percent of donor CD8+ T cells tetramer positive (8.3 TcR) [%] | decrease in expression of NKG2D on the cell surface (human NKG2D (human) [1]) [%] | mean fluorescence intensity (arbitrary units) (human NKG2D (human) [2]) | mean fluorescence intensity (arbitrary units) (human NKG2D (human) [3]) |
| --- | --- | --- | --- | --- |
| NRP-V7/H-2K^d tetramer (from UniProt P01902 22-305) (peptide-MHC) | > 90 | – | – | – |
| mouse anti-human NKG2D mAb (R&D Systems clone 149810) (antibody) | – | 67 | 186 | 61 |
